Columns and labels:
[1] = target: Acrophialophora nainiana xylanases
[2] = target: Aspergillus niger xylanases
[3] = target: Acrophialophora nainiana xylanases; remark: listed apart in the source

Inhibition (%) of xylanase activity (oat spelt xylan, DNS reagent, Abs 540 nm; enzymes:inhibitor ratio 12:1 w/w) [1]: 56%
Inhibition (%) of xylanase activity (oat spelt xylan, DNS reagent, Abs 540 nm; 60 μg xylanases, 5 μg CaclXIP, 12:1 w/w, 50°C, 30 min) [2]: 19.5%
Inhibition (%) of xylanase activity (oat spelt xylan, DNS reagent, Abs 540 nm; 60 μg xylanases, 5 μg CaclXIP, 12:1 w/w, 50°C, 30 min) [3]: 57%
Substance: Coffea arabica Chitinase-like Xylanase Inhibitor Protein (natural protein)
